“Also recorded” adds a separate entry of the source.

The test system of one data set is EHY18 yeast cells. Briefly: in vivo expression of GbLS constructs in yeast strain EHY18 that accumulates GGDP, GC quantitation of products. It counts as cell-based. The following applies: for diterpene products on expression in EHY18: GC, GC/MS. Here is the method: The yeast strain of the copending application employed was EHY18 (Hart, E., 2001) which was further transformed with multiple-copy yeast expression vectors comprising an isolated and purified nucleic acid sequence of GbLS or derivatives thereof, which are described herein under control of the GAL1 inducible promoter. Yeast cells were grown to saturation in 5 mL ScD-Leu-Ura at 30° C. Cells were harvested (1300×g, 2 min, 25° C.) and resuspended in 500 μL sterile Milli-Q H2O (2×). The washed cells were resuspended in 5 mL sterile Milli-Q H2O. An aliquot of the culture (5 μL) was added to a 25 mL Corex tube containing pre-prepared 2× resin and 5 mL ScG-Leu-Ura (4% galactose) and shaken at 30° C. for 6 days. Resin was collected by filtration through a Kontes chromatography column (1.7 cm diameter) and rinsed with dI H2O until eluent was clear. The resin was incubated in 2 mL ethanol for several minutes, eluted, and repeated 2×. The combined eluents were dissolved in approximately 3 mL dI H2O and extracted (3×) with 3 mL hexane. The combined extracts were concentrated under a stream of nitrogen. GC analysis (quantitation extrapolated from 0.2 mg/mL longifolene external standard) indicated the following product profile (obtained from triplicate measurement of three cultures): 0.61±0.20 mg/L levopimaradiene, 0.04±0.01 mg/L abietadiene, 0.15±0.05 mg/L abietatriene, 0.16±0.13 mg/L (+)-copalol, and 1.79±0.90 mg/L geranylgeraniol. GC/MS fragmentation confirmed the identity of each compound.
A large scale culture (1-L) was prepared by growing the yeast cells to saturation in 5 mL ScD-Leu-Ura at 30° C. Cells were harvested (1300×g, 2 min, 25° C.) and resuspended in 500 μL sterile Milli-Q H2O (2×). The washed cells were resuspended in 5 mL sterile Milli-Q H2O. An aliquot of the culture (1 mL) was added to a 2 L flask containing 1-L ScG-Leu-Ura (4% galactose) and 88.27 g resin in 120 mL Milli-Q H2O (pre-prepared). The resin was eluted with ethanol (3×100 mL with 20 min incubation periods), which was subsequently extracted (6×) with hexane. The combined extracts were dried over magnesium sulfate, filtered, and concentrated under reduced pressure. GC analysis (quantitation extrapolated from 0.2 mg/mL longifolene external standard) indicated the following product profile (obtained from triplicate measurement): 0.29±0.04 mg/L levopimaradiene, 0.04±0.02 mg/L abietadiene, 0.13±0.04 mg/L abietatriene, 0.11±0.02 mg/L (+)-copalol, and 0.56±0.03 mg/L geranylgeraniol. GC/MS analyses confirmed the production of the above noted diterpenes, which included hydrocarbons and an alcohol.
Further optimization studies employed the Ser61 construct. Factors influencing diterpene production included induction period and concentration of galactose and resin in the inducing medium.

The nature of data set [1]: in vitro assay of levopimaradiene synthase constructs expressed in wild-type S. cerevisiae JBY575. The following applies: wild-type S. cerevisiae JBY575, galactose 48 hours, lysate with GGDP. The class given is biochemical, Saccharomyces cerevisiae. As for the experimental part: Expression in S. cerevisiae JBY575, which represents wild-type yeast, was observed. JBY575 cells transformed with pRS426GAL inserted with the putative levopimaradiene synthase were grown in synthetic complete medium lacking uracil and supplemented with 2% glucose and 1.5% agar at 30° C. to saturation and induced with galactose for 48 hours. Cells were harvested, resuspended in lysis buffer, and mixed by vortexing over glass beads. The lysate was assayed with 60 μM GGDP in the presence and absence of 0.2% and 5% Triton X-100.
All in vitro reactions were extracted 3× with hexane and dried over MgSO4. The reaction was further extracted twice with diethyl ether and dried over MgSO4. Thereafter, the crude lysate was suspended in 100 mM Tris, pH 8.0 containing 2.9 units/mg apyrase (a dephosphorylating agent) and 10 units/μL calf intestinal alkaline phosphatase, incubated at 30° C. for 3 hours, and extracted with diethyl ether as noted above (Croteau and Cane, 1985). The crude reaction mixtures were eluted over SiO2, concentrated, and analyzed by GC and GC/MS.
Gas chromatography spectra were obtained on a Hewlett Packard 6890 Series GC System equipped with an Rtx-5 capillary column (Restek, 30 m×0.25 mm i.d., 0.10 μm df). The following separation conditions and temperature program were employed: injector port 250° C., FID 250° C., split ratio 39:1, helium flow 20 cm/s (0.6 mL/min), 150° C. hold 5 min, increase to 250° C. (5° C./min), hold 5 min. GC/MS spectra were obtained on a Hewlett-Packard 5890A instrument with a 30-m DB-5 ms column (J&W Scientific Inc., 0.25 mm i.d., 0.10 μm df). The following separation conditions and temperature program were employed: injector port 280° C., transfer lines: 280° C., helium flow at 30 cm/s (1 mL/min) with splitless injection at 150° C. hold 3 min, increase to 250° C. (5° C./min), hold 5 min. Mass spectra (m/z 50 to 500) were obtained on a VG ZAB-HF reverse-geometry double-focusing instrument at 70 eV with an electron-impact ion source (200° C.). Accelerating voltage was set to 8 kV and the resolution was 1000 (10% valley).
The skilled artisan recognizes that lysis and assay conditions should be optimized. Examples of parameters that can be adjusted to optimize conditions include altering buffer, pH, reductant, reductant concentration, metal cofactors, cofactor concentrations, glycerol concentrations, substrate concentrations, and assay temperatures. […] Maximum soluble protein production and diterpene yield were obtained with the following conditions. Cell cultures were induced with 1 mM IPTG at 20° C. with shaking for 6 hours and lysed by sonication in 30 mM HEPES, pH 7.2, 5 mM DTT, and 5% glycerol. The soluble fraction of the lysate (100 mg/1 mL) was incubated with 20 μM GGDP in 30 mM HEPES, pH 7.2, 5 mM DTT, 5% glycerol, 2 mM MgCl2, and 500 μM MnCl2 overnight at 32° C. Yeast expression was induced with galactose at 30° C. for 48 hours and the cells were lysed and assayed according to the conditions noted.

Where [2] appears, read: EHY18, 6 days, 4% galactose, 0.70 g resin/5 mL culture medium, GC quantitation.

B1: Ala^2 (protein, listed as Ginkgo biloba)
chain: MAGVLFANLPCSLQLSPKVPFRQSTNILIPFHKRSSFGFNAQHCVRSHLRLRWNCVGIHASAAETRPDQLPQEERFVSRLNADYHPAVWKDDFIDSLTSPNSHATSKSSVDETINKRIQTLVKEIQCMFQSMGDGETNPSAYDTAWVARIPSIDGSGAPQFPQTLQWILNNQLPDGSWGEECIFLAYDRVLNTLACLLTLKIWNKGDIQVQKGVEFVRKHMEEMKDEADNHRPSGFEVVFPAMLDEAKSLGLDLPYHLPFISQIHQKRQKKLQKIPLNVLHNHQTALLYSLEGLQDVVDWQEITNLQSRDGSFLSSPASTACVFMHTQNKRCLHFLNFVLSKFGDYVPCHYPLDLFERLWAVDTVERLGIDRYFKKEIKESLDYVYRYWDAERGVGWARCNPIPDVDDTAMGLRILRLHGYNVSSDVLENFRDEKGDFFCFAGQTQIGVTDNLNLYRCSQVCFPGEKIMEEAKTFTTNHLQNALAKNNAFDKWAVKKDLPGEVEYAIKYPWHRSMPRLEARSYIEQFGSNDVWLGKTVYKMLYVSNEKYLELAKLDFNMVQALHQKETQHIVSWWRESGFNDLTFTRQRPVEMYFSVAVSMFEPEFAACRIAYAKTSCLAVILDDLYDTHGSLDDLKLFSEAVRRWDISVLDSVRDNQLKVCFLGLYNTVNGFGKDGLKEQGRDVLGYLRKVWEGLLASYTKEAEWSAAKYVPTFNEYVENAKVSIALATVVLNSIFFTGELLPDYILQQVDLRSKFLHLVSLTGRLINDTKTYQAERNRGELVSSVQCYMRENPECTEEEALSHVYGIIDNALKELNWELANPASNAPLCVRRLLFNTARVMQLFYMYRDGFGISDKEMKDHVSRTLFDPVA
For B1, the “diterpene products on expression in EHY18” value with EHY18 yeast cells is “produced (+)-copalol, levopimaradiene, abietadiene, and abietatriene”. Moreover, the “diterpene product on yeast expression” value is recorded as “failed to produce observable levels of any diterpene product” in data set [1] and “failed to produce detectable levels of biosynthetic product” in data set [1] (listed as full-length).

B2: Ser^61: Ginkgo biloba levopimaradiene synthase truncated at Ala^60-Ser^61; amino acid sequence SEQ.ID.NO:35 (protein, listed as Ginkgo biloba)
chain: MSAAETRPDQLPQEERFVSRLNADYHPAVWKDDFIDSLTSPNSHATSKSSVDETINKRIQTLVKEIQCMFQSMGDGETNPSAYDTAWVARIPSIDGSGAPQFPQTLQWILNNQLPDGSWGEECIFLAYDRVLNTLACLLTLKIWNKGDIQVQKGVEFVRKHMEEMKDEADNHRPSGFEVVFPAMLDEAKSLGLDLPYHLPFISQIHQKRQKKLQKIPLNVLHNHQTALLYSLEGLQDVVDWQEITNLQSRDGSFLSSPASTACVFMHTQNKRCLHFLNFVLSKFGDYVPCHYPLDLFERLWAVDTVERLGIDRYFKKEIKESLDYVYRYWDAERGVGWARCNPIPDVDDTAMGLRILRLHGYNVSSDVLENFRDEKGDFFCFAGQTQIGVTDNLNLYRCSQVCFPGEKIMEEAKTFTTNHLQNALAKNNAFDKWAVKKDLPGEVEYAIKYPWHRSMPRLEARSYIEQFGSNDVWLGKTVYKMLYVSNEKYLELAKLDFNMVQALHQKETQHIVSWWRESGFNDLTFTRQRPVEMYFSVAVSMFEPEFAACRIAYAKTSCLAVILDDLYDTHGSLDDLKLFSEAVRRWDISVLDSVRDNQLKVCFLGLYNTVNGFGKDGLKEQGRDVLGYLRKVWEGLLASYTKEAEWSAAKYVPTFNEYVENAKVSIALATVVLNSIFFTGELLPDYILQQVDLRSKFLHLVSLTGRLINDTKTYQAERNRGELVSSVQCYMRENPECTEEEALSHVYGIIDNALKELNWELANPASNAPLCVRRLLFNTARVMQLFYMYRDGFGISDKEMKDHVSRTLFDPVA
In the case of B2, the “diterpene production relative to wild-type synthase” value in the data set with EHY18 yeast cells (EHY18) was “approximately four”. In addition, in the data set with EHY18 yeast cells (setting [2]), the “net yield of (+)-copalol” value is recorded as ~0.2 mg/L and the “net yield of diterpene hydrocarbons” value is ~0.8 mg/L. For the same molecule, the “diterpene products on expression in EHY18” value in the data set with EHY18 yeast cells is “produced (+)-copalol, levopimaradiene, abietadiene, and abietatriene”. In data set [1], the “diterpene product on yeast expression” value was “yielded levopimaradiene as the sole diterpene; also recorded: yielded levopimaradiene synthase activity”.
